Data: paper PMC8162121 (Nature cell biology, 2021)

How the values were obtained:
[1] = molecular target: GST-tagged EZH2, purified recombinant (human, UniProt Q15910 1-746); assay: AlphaScreen or HTRF
[2] = molecular target: Flag-tagged EZH2, purified recombinant (human, UniProt Q15910 1-746); assay: AlphaScreen or HTRF
Sequence of Flag-tagged EZH2, purified recombinant (Q15910 whole entry): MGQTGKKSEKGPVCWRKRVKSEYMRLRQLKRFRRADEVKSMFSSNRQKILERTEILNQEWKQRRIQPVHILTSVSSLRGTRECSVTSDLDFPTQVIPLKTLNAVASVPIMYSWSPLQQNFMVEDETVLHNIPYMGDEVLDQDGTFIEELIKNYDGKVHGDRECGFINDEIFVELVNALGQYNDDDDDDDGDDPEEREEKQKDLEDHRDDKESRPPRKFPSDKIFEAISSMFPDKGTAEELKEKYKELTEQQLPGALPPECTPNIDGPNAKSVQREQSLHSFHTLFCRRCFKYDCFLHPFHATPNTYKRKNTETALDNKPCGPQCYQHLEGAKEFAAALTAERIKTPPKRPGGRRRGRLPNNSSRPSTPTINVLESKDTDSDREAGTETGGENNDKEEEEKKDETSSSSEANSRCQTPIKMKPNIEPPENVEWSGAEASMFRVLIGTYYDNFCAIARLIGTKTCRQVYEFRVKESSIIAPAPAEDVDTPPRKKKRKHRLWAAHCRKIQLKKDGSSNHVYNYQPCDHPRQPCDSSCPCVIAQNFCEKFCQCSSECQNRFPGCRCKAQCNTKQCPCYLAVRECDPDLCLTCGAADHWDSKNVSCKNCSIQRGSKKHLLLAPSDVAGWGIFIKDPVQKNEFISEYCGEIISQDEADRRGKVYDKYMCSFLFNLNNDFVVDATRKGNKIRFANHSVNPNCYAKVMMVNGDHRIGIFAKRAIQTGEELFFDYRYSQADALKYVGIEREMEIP

Sequence of GST-tagged EZH2, purified recombinant (Q15910 whole entry): as above

Kd [1] [nM]	Kd [2] [nM]	Binder
842	–	unlabeled FBL, purified recombinant (natural protein, human, UniProt P22087 1-321, looked up) MKPGFSPRGGGFGGRGGFGDRGGRGGRGGFGGGRGRGGGFRGRGRGGGGGGGGGGGGGRGGGGFHSGGNRGRGRGGKRGNQSGKNVMVEPHRHEGVFICRGKEDALVTKNLVPGESVYGEKRVSISEGDDKIEYRAWNPFRSKLAAAILGGVDQIHIKPGAKVLYLGAASGTTVSHVSDIVGPDGLVYAVEFSHRSGRDLINLAKKRTNIIPVIEDARHPHKYRMLIAMVDVIFADVAQPDQTRIVALNAHTFLRNGGHFVISIKANCIDSTASAEAVFASEVKKMQQENMKPQEQLTLEPYERDHAVVVGVYRPPPKVKN
–	43.6	unlabeled NOP56, purified recombinant (natural protein, human, UniProt O00567 1-594, looked up) MVLLHVLFEHAVGYALLALKEVEEISLLQPQVEESVLNLGKFHSIVRLVAFCPFASSQVALENANAVSEGVVHEDLRLLLETHLPSKKKKVLLGVGDPKIGAAIQEELGYNCQTGGVIAEILRGVRLHFHNLVKGLTDLSACKAQLGLGHSYSRAKVKFNVNRVDNMIIQSISLLDQLDKDINTFSMRVREWYGYHFPELVKIINDNATYCRLAQFIGNRRELNEDKLEKLEELTMDGAKAKAILDASRSSMGMDISAIDLINIESFSSRVVSLSEYRQSLHTYLRSKMSQVAPSLSALIGEAVGARLIAHAGSLTNLAKYPASTVQILGAEKALFRALKTRGNTPKYGLIFHSTFIGRAAAKNKGRISRYLANKCSIASRIDCFSEVPTSVFGEKLREQVEERLSFYETGEIPRKNLDVMKEAMVQAEEAAAEITRKLEKQEKKRLKKEKKRLAALALASSENSSSTPEECEEMSEKPKKKKKQKPQEVPQENGMEDPSISFSKPKKKKSFSKEELMSSDLEETAGSTSIPKRKKSTPKEETVNDPEEAGHRSGSKKKRKFSKEEPVSSGPEEAVGKSSSKKKKKFHKASQED
